Measured values reported in patent publication US20230220057A1 (STAIDSON BEIJING BIOPHARMACEUTICALS, published 2023).
Like-named read-outs stand apart in the source and are kept apart here.

How the values were obtained:
human NGF-Fc4 (IgG4-Fc) [1] = molecular target: T1, human NGF-Fc4 (IgG4-Fc) (human, UniProt P01138 122-241, limits assumed); assay: competition ELISA: antibody pre-incubated with human NGF-Fc4, binding to coated p75-Fc
T1 construct: not shown: human IgG4 Fc
Protocol: p75 inhibition ELISA assay: The p75 inhibition assay was designed to identify anti-NGF antibodies that were capable of inhibiting NGF binding to p75. In this assay, human p75-Fc (IgG1-Fc, Sinobiological) was coated at 1 μg/mL in the 96-well plates and incubated overnight at 4° C. Anti-NGF antibodies, from supernatants directly or after purified, in different dilutions, were pre-incubated with human NGF-Fc4 (IgG4-Fc) at a final concentration of 350 ng/mL for 2 hours in 37° C. A total of 50 μl of the reaction mixtures were then transferred into the p75-Fc coated 96-well plates and incubated in room temperature for 2 hrs. After washing, a secondary mouse anti-human IgG4-AP (Southern biotech) was added at a dilution of 1:1000. After 1 hour in room temperature, the plates were washed, and after adding PNPP substrate, ODs at 405 nm were read.
(§1) p75 inhibition ELISA assay: The optimized anti-NGF antibodies Ab4, Ab61, and the reference antibody Tanezumab, a humanized antibody from mouse hybridoma were further analyzed for their abilities to block NGF binding to its receptor p75. P75 inhibition assay was performed as described in Example 1.

human NGF-Fc4 (IgG4-Fc) [2] = molecular target: T1, human NGF-Fc4 (IgG4-Fc); assay: competition ELISA: antibody pre-incubated with human NGF-Fc4, binding to coated TrkA-Fc
Protocol: TrkA inhibition ELISA assay: The TrkA inhibition ELISA assay was designed to identify the anti-NGF antibodies that have the capability of blocking NGF binding to its receptor TrkA. In this assay, human TrkA-Fc (IgG1-Fc, Sinobiological) was coated at 1 μg/ml in the 96-well plates and incubated overnight at 4° C. Antibodies, from cell culture supernatants or after purified, in different dilutions, were pre-incubated with human NGF-Fc4 (IgG4-Fc) at a final concentration of 70 ng/mL for 2 hours in 37° C. A total of 50 μl of the reaction mixtures were then transferred into the TrkA-Fc coated 96-well plates and incubated in room temperature for 2 hours. After washing, a secondary mouse anti-human IgG4-AP (Southern biotech) was added at a dilution of 1:1000 After one hour in room temperature, the plates were washed, and after adding PNPP substrate, ODs at 405 nm were read.
as §1, with “TrkA” for “p75”, “Ab6, Ab10, Ab16, Ab36, Ab37, Ab44, Ab45, Ab46, Ab47, Ab48, Ab49, Ab52, Ab54, Ab55, Ab56, Ab57, Ab58, Ab59, Ab60, Ab61” for “Ab61,”, “Tanezumab (Pfizer),” for “Tanezumab,”, “TrkA. TrkA” for “p75. P75”

human NGF (R&D system) [3] = molecular target: T2, human NGF (R&D system) (human, UniProt P01138 122-241); assay: cell-based or functional assay
T2 sequence (P01138 122-241 limits assumed): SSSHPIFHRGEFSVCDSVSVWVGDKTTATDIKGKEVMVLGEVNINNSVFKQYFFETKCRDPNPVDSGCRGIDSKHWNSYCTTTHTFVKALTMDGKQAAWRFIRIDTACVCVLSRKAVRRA

[4] = molecular target: recombinantly produced human-NGF (human, UniProt P01138 122-241, limits assumed); assay: ELISA, human NGF coated, IgG titrated
recombinantly produced human-NGF, sequence (P01138 122-241 limits assumed): as above
Protocol: NGF binding ELISA assay: In human NGF binding ELISA, Corning 3366 high binding 96 well plates were coated with recombinantly produced human-NGF at 1 μg per ml, 50 μl/well in 1×PBS, and incubated overnight at 4° C. The plates were washed and blocked with 250 μl of 1×PBS/1% BSA at least 30 minutes at room temperature. 50 μl of culture supernatants, after 1:1 diluted by the PBS/BSA diluent, or the purified antibodies diluted serially from a certain concentration with the diluent, were added per well, and incubated at 37° C. for 2 hours. After washing, a secondary antibody, goat anti-human IgG Fc AP (Southern biotech) was applied at a dilution of 1:3000 in PBS/BSA. The plates were incubated for 1 hour at RT and washed. After adding the PNPP substrate, the ODs at 405 nm were read.
NGF binding ELISA assay: NGF binding ELISA assay was performed as described in Example 1.

NT3 = molecular target: T3, NT3 (UniProt P20783 139-257); assay: ELISA
T3 construct: also called neurotrophin-3
T3 sequence (looked up): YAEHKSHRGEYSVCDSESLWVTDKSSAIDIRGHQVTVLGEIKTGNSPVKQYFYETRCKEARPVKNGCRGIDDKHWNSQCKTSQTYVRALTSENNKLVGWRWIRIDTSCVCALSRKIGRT

BDNF = molecular target: T4, BDNF (UniProt P23560 129-247); assay: ELISA
T4 construct: also called brain-derived neurotrophic factor
T4 sequence (looked up): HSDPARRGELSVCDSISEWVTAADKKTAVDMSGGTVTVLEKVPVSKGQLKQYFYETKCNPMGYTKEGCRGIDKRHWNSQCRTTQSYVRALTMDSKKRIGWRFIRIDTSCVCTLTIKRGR

NT4 = molecular target: T5, NT4 (UniProt P34130 81-210); assay: ELISA
T5 construct: also called neurotrophin-4
T5 sequence (looked up): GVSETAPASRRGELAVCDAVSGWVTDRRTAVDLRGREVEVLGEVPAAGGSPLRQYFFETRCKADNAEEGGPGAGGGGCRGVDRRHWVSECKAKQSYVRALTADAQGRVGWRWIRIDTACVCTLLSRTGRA

human NGF (R&D system) [5] = molecular target: T2, human NGF (R&D system); assay: cell-based or functional assay; remark: listed apart in the source
human NGF (R&D system) [6] = molecular target: T2, human NGF (R&D system); assay: cell-based or functional assay; remark: listed apart in the source
human NGF (R&D system) [7] = molecular target: T2, human NGF (R&D system); assay: cell-based or functional assay; remark: listed apart in the source

T1 sequence (P01138 122-241 limits assumed): as the sequence (P01138 122-241 limits assumed) above

B1: Tanezumab (antibody, part only; not given: constant regions, V domains shown, not shown: another chain or arm of the molecule)
VH: QVQLQESGPGLVKPSETLSLTCTVSGFSLIGYDLNWIRQPPGKGLEWIGIIWGDGTTDYNSAVKSRVTISKDTSKNQFSLKLSSVTAADTAVYYCARGGYWYATSYYFDYWGQGTLVTVSS
VL: DIQMTQSPSSLSASVGDRVTITCRASQSISNNLNWYQQKPGKAPKLLIYYTSRFHSGVPSRFSGSGSGTDFTFTISSLQPEDIATYYCQQEHTLPYTFGQGTKLEIK
IC50 (human NGF-Fc4 (IgG4-Fc) [1]): 525 ng/mL | IC50 (human NGF-Fc4 (IgG4-Fc) [2]): 60.2 ng/mL | Chicken DRG Neurite Outgrowth Inhibition Assay IC50 (human NGF (R&D system) [3]): 0.0727 nM | TF1 Cell Proliferation Inhibition Assay IC50 (human NGF (R&D system) [3]): 0.17 nM | EC50 [4]: 0.00937 ng/mL

B2: Ab6 (antibody, human IgG1, V domains shown)
VH: EVQLVQSGAEVKKPGATVKISCKVSGYTFITYWISWVQQAPGKGLEWMGAIDPSDSDARYSPSFQGRVTITADTSTDTAYMELSSLRSEDTAVYYCAKSDPGYSGYSLLYGFDSWGQGTLVTVSS
VL: DVVMTQSPLSLPVTLGQPASISCRSSQSLVQRNGNTYLSWFQQRPGQPPRLLIYQVSNRYSGVPDRFSGSGSGTDFTLKISRVEAEDVGVYYCGQGAHLPLTFGQGTKVEIK
IC50 (human NGF-Fc4 (IgG4-Fc) [2]): 76.9 ng/mL | binding result (NT3): no binding (tested: 100 µg/mL) | binding result (BDNF): no binding (tested: 100 µg/mL) | binding result (NT4): no binding (tested: 100 µg/mL) | EC50 [4]: 0.021 ng/mL | TF1 Cell Proliferation Inhibition Assay IC50 (human NGF (R&D system) [5]): 0.17 nM

B3: Ab44 (antibody, human IgG1, V domains shown)
VH: EVQLVQSGAEVKKPGESLKISCKGSGYSFITYWISWVRQMPGKGLEWMGAIDPSDSDARYSPSFQGQVTISADKSISTAYLQWSSLKASDTAMYYCAKSDPGYSGYSLLYGFDSWGQGTLVTVSS
VL: DVVMTQSPLSLPVTLGQPASISCRSSQSLVQRNGNTYLSWYQQRPGQSPRLLIYQVSNRYSGVPDRFSGSGSGTDFTLKISRVEAEDVGVYYCGQGAHLPLTFGQGTKVEIK
IC50 (human NGF-Fc4 (IgG4-Fc) [2]): 130 ng/mL | binding result (NT3): no binding (tested: 100 µg/mL) | binding result (BDNF): no binding (tested: 100 µg/mL) | binding result (NT4): no binding (tested: 100 µg/mL) | EC50 [4]: 0.0129 ng/mL

B4: Ab61 (antibody, human IgG1, V domains shown)
VH: EVQLVQSGAEVKKPGATVKISCKVSGYTFITYWISWVQQAPGKGLEWMGAIDPSDSDARYSPSFQGRVTITADTSTDTAYMELSSLRSEDTAVYYCAKSDPGYSGYSLLYGFDSWGQGTLVTVSS
VL: DVVMTQSPLSLPVTLGQPASISCRSSQSLVQRNANTYLSWYQQRPGQSPRLLIYQVSNRYSGVPDRFSGSGSGTDFTLKISRVEAEDVGVYYCGQGAHLPLTFGQGTKVEIK
IC50 (human NGF-Fc4 (IgG4-Fc) [1]): 577 ng/mL | ERK1/2 Signaling Pathway Inhibition Assay IC50 (PC12 cells) (human NGF (R&D system) [6]): 0.175 nM | Chicken DRG Neurite Outgrowth Inhibition Assay IC50 (human NGF (R&D system) [7]): 0.0786 nM | IC50 (human NGF-Fc4 (IgG4-Fc) [2]): 70 ng/mL | EC50 [4]: 0.014 ng/mL | TF1 Cell Proliferation Inhibition Assay IC50 (human NGF (R&D system) [5]): 0.346 nM

B5: Ab36 (antibody, human IgG1, V domains shown)
VH: EVQLVQSGAEVKKPGATVKISCKVSGYTFITYWISWVQQAPGKGLEWMGAIDPSDSDARYSPSFQGRVTITADKSTDTAYMELSSLRSEDTAVYYCAKSDPGYSGYSLLYGFDSWGQGTLVTVSS
VL: DVVMTQSPLSLPVTLGQPASISCRSSQSLVQRNGNTYLSWFQQRPGQPPRLLIYQVSNRYSGVPDRFSGSGSGTDFTLKISRVEAEDVGVYYCGQGAHLPLTFGQGTKVEIK
IC50 (human NGF-Fc4 (IgG4-Fc) [2]): 89.9 ng/mL | binding result (NT3): no binding (tested: 100 µg/mL) | binding result (BDNF): no binding (tested: 100 µg/mL) | binding result (NT4): no binding (tested: 100 µg/mL) | EC50 [4]: 0.0218 ng/mL | TF1 Cell Proliferation Inhibition Assay IC50 (human NGF (R&D system) [5]): 0.234 nM

B6: Ab54 (antibody, human IgG1, V domains shown)
VH: EVQLVQSGAEVKKPGESLKISCKISGYSFITYWISWVRQMPGKGLEWMGAIDPSDSDARYSPSFQGQVTISADKSISTAYLQWSSLKASDTAMYYCAKSDPGYSGYSLLYGFDSWGQGTLVTVSS
VL: DVVMTQSPLSLPVTLGQPASISCRSSQSLVQRNGNTYLSWYQQRPGQSPRLLIYQVSNRYSGVPDRFSGSGSGTDFTLKISRVEAEDVGVYYCGQGAHLPLTFGQGTKVEIK
IC50 (human NGF-Fc4 (IgG4-Fc) [2]): 70.2 ng/mL | binding result (NT3): no binding (tested: 100 µg/mL) | binding result (BDNF): no binding (tested: 100 µg/mL) | binding result (NT4): no binding (tested: 100 µg/mL) | EC50 [4]: 0.0257 ng/mL | TF1 Cell Proliferation Inhibition Assay IC50 (human NGF (R&D system) [5]): 0.183 nM

B7: Ab4 (antibody, human IgG1, V domains shown)
VH: EVQLVQSGAEVKKPGATVKISCKVSGYTFITYWISWVQQAPGKGLEWMGAIDPSDSDARYSPSFQGRVTITADTSTDTAYMELSSLRSEDTAVYYCAKSDPGYSGYSLLYGFDSWGQGTLVTVSS
VL: DVVMTQSPLSLPVTLGQPASISCRSSQSLVQRNGNTYLSWYQQRPGQSPRLLIYQVSNRYSGVPDRFSGSGSGTDFTLKISRVEAEDVGVYYCGQGAHLPLTFGQGTKVEIK
IC50 (human NGF-Fc4 (IgG4-Fc) [1]): 481 ng/mL | ERK1/2 Signaling Pathway Inhibition Assay IC50 (PC12 cells) (human NGF (R&D system) [6]): 0.131 nM | Chicken DRG Neurite Outgrowth Inhibition Assay IC50 (human NGF (R&D system) [7]): 0.0663 nM | IC50 (human NGF-Fc4 (IgG4-Fc) [2]): 74.6 ng/mL | binding result (NT3): no binding (tested: 100 µg/mL) | binding result (BDNF): no binding (tested: 100 µg/mL) | binding result (NT4): no binding (tested: 100 µg/mL) | EC50 [4]: 0.0124 ng/mL | TF1 Cell Proliferation Inhibition Assay IC50 (human NGF (R&D system) [5]): 0.174 nM
